The source of these data is paper PMC9000915.

For the test, the target named is gp41 subunit of ADA.CM.v4 Env on hVLPs (CTD truncated, stop codon at 756) (HIV-1 (subtype B isolate ADA)). The experiment in a line: cryo-EM structure; cryo-ET with sub-tomogram averaging of Env on purified, AT-2-treated ADA.CM.v4 hVLPs; C3 map 9.13 Å, C1 map 10.67 Å; PDB 6ULC fitted as rigid body.

With “gp41 subunit of ADA.CM.v4 Env on hVLPs (CTD truncated, stop codon at 756) (natural protein)”, the stoichiometry N turned out to be 3.
